Measured values from US20230365711A1 (Hoffmann-La Roche, published 2023).
Numbering of substitutions follows the chain as printed. Names and notes keep the numbering of the source. Values belong to the binder of their own block, whether it stands above or below them.

Tests used:
[1] = biological target: T1, huNABA-avi-his (hybrid protein N-A1-B3-A2: N and A1 domains of human BGP, B3 domain of human CEA, A2 domain … (human, biotinylated at the avi tag (in vivo, co-transfected biotin ligase))); experiment: Proteon SPR, antibody analyte on biotinylated NABA (Neutravidin chip); column Ka (M)
T1 construct: also called NABA-avi-his reagent; biotinylated NABA
T1 chain: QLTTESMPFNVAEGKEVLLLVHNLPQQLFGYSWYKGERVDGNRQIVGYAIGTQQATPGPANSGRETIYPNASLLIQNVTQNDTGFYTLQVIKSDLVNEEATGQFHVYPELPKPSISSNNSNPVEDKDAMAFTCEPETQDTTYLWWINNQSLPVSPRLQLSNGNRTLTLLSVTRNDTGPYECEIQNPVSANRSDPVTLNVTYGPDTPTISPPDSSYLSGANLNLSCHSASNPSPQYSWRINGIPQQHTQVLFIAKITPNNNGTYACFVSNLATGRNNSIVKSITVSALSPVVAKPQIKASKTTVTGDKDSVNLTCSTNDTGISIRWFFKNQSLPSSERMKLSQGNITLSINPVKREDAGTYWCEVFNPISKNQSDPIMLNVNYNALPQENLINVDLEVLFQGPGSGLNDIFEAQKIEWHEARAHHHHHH

[2] = biological target: T2, human carcinoembryonic antigen (CEA), membrane-bound on cells (human, UniProt P06731 35-685); experiment: FACS on MKN45 cells
T2 construct: whole, on cells; also called CEACAM-5; CD66e
T2 sequence (looked up): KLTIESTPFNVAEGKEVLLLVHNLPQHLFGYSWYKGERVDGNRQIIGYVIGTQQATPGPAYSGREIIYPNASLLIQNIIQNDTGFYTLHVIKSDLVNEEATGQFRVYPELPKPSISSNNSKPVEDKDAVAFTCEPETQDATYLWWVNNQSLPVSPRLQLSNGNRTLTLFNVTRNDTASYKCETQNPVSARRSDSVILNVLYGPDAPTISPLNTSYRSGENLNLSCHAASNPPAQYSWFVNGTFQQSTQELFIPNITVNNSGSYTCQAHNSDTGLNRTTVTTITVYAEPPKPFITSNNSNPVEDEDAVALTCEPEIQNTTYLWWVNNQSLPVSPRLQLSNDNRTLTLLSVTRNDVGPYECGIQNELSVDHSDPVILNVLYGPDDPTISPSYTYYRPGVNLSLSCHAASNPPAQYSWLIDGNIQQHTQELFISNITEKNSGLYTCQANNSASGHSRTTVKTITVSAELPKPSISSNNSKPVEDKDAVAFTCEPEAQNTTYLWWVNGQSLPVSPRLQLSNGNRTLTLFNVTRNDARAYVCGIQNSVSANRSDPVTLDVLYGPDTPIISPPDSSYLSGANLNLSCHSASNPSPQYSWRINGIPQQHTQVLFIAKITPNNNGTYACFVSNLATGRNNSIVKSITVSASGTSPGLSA

[3] = biological target: T1, huNABA-avi-his (hybrid protein …); experiment: Proteon SPR, antibody analyte on biotinylated NABA (Neutravidin chip)
[4] = biological target: T1, huNABA-avi-his (hybrid protein …); experiment: as above
Source text: (§1) Proteon (Biacore) sensorgrams were obtained for the binding of the combined framework and CDR-H3 variants to the CEA antigen-harbouring chimeric protein NABA. […] The precursor clone 5L1A10 and the parental antibody CH7A were included for direct comparison. All antibodies tested in this assay had 2F1 as the light chain FIG. 25.

[5] = biological target: T1, huNABA-avi-his (hybrid protein …); experiment: Proteon SPR, antibody analyte on biotinylated NABA (Neutravidin chip); column Ka (M)
Source text: as §1

[6] = biological target: T2, human carcinoembryonic antigen (CEA), …; experiment: flow cytometry on MKN45 cells, IgG1/kappa
Experimental: An affinity matured heavy chain variable region construct, CH7A rF9, and an affinity matured light chain variable region construct, CL1A rH11, were paired with the parent light chain variable region construct and the heavy chain variable region construct, respectively, and with each other. All antibodies were converted into human IgG1/kappa and binding to the CEA-positive cell-line MKN45 was measured by flow cytometry. […] The matured light chain shifts the EC50 values to lower numbers, whereas the matured heavy chains (rF9 in FIG. 6, and rB9 in FIG. 15) shift the total fluorescence signal intensity in a flow-cytometry measurement. […] The combination of these two chains increases the affinity even further.

[7] = biological target: T1, huNABA-avi-his (hybrid protein …); experiment: Biacore on immobilized NABA-avi-his; Bivalent Affinity
[8] = biological target: T1, huNABA-avi-his (hybrid protein …); experiment: Proteon SPR, antibody analyte on biotinylated NABA (Neutravidin chip); column Ka (M)
Source text: (§2) Shown in FIG. 22 are Proteon (Biacore) sensorgrams obtained for the binding of the CDR-H3 antibody variants to the CEA antigen-harbouring chimeric protein NABA. […] The affinity matured precursor clone 5HFF12 and the parental antibody CH7A were included for direct comparison. All antibodies tested in this assay had 2F1 as the light chain. […] The relative affinity of each, measured in the bivalent form, is as follows: 5HFF12>CH7A (Y98A/D99Y)>CH7A (Y98A)>CH7A>CH7A (E102Q)>CH7A (D99Y)>CH7A (D99H)>CH7A (A103T)>CH7A (V101F)>CH7A (W95Y).

[9] = biological target: T1, huNABA-avi-his (hybrid protein …); experiment: Proteon SPR, antibody analyte on biotinylated NABA (Neutravidin chip)
Source text: as §2

[10] = biological target: T1, huNABA-avi-his (hybrid protein …); experiment: Biacore, Fab on immobilized NABA-avi-his; column Monovalent Affinity
[11] = biological target: T1, huNABA-avi-his (hybrid protein …); experiment: Biacore SPR, Fab; antigen not named on the sheet, NABA-avi-his per paragraph 230
[12] = biological target: T1, huNABA-avi-his (hybrid protein …); experiment: Biacore, column Affinity, CDR-L1 and CDR-L2 rows; antigen not named on the sheet, NABA-avi-his per paragraph 230

B1: anti-CEA antibody with heavy chain CH1A1 and light chain 2F1 (antibody, V domains shown)
VH: QVQLVQSGAEVKKPGASVKVSCKASGYTFTEFGMNWVRQAPGQGLEWMGWINTKTGEATYVEEFKGRVTFTLDTSTSTAYMELRSLRSDDTAVYYCARWDFYDYVEAMDYWGQGTTVTVSS
VL: DIQMTQSPSSLSASVGDRVTITCKASAAVGTYVAWYQQKPGKAPKLLIYSASYRKRGVPSRFSGSGSGTDFTLTISSLQPEDFATYYCHQYYTYPLFTFGQGTKLEIKR
notes: CH1A with M69F/T71L double point mutation; also called precursor clone CH1A1
- kon [1]: 81900 M⁻¹ s⁻¹
- EC50 (read off the curve) [2]: ~1 µg/mL
- Kd [3]: 4.24 nM

B5: anti-CEA antibody with heavy chain CH1A1A and light chain 2F1 (antibody, V domains shown)
VH: B1 VH with L72T
VL: B1 VL
- kon [1]: 81800 M⁻¹ s⁻¹
- EC50 (read off the curve) [2]: ~1 µg/mL
- Kd [3]: 5.91 nM

B6: anti-CEA antibody with heavy chain CH1A1F and light chain 2F1 (antibody, V domains shown)
VH: B1 VH with F70M, L72T, M81L
VL: B1 VL
- kon [1]: 70800 M⁻¹ s⁻¹
- EC50 (read off the curve) [2]: ~1 µg/mL
- Kd [3]: 7.58 nM

B7: CH1A1A (Y98A/D99Y) 2F1 (antibody, V domains shown)
VH: B1 VH with L72T, Y102A, D103Y
VL: B1 VL
notes: also called CH1A1A (98/99); CH1A1A (Y98A/D99Y)x2F1
- Kd [4]: 0.537 nM
- kon [5]: 628000 M⁻¹ s⁻¹

B8: anti-CEA antibody with heavy chain CH1A1B and light chain 2F1 (antibody, V domains shown)
VH: B1 VH with Q3K, V5Q, F70M, L72T
VL: B1 VL
- kon [1]: 53700 M⁻¹ s⁻¹
- EC50 (read off the curve) [2]: ~1 µg/mL
- Kd [3]: 8.9 nM

B11: anti-CEA Fab with unmatured heavy chain CH7A and affinity matured light chain CL1A pAC18 (Fab, V domains shown)
VH: QVQLVQSGSELKKPGASVKVSCKASGYTFTEFGMNWVRQAPGQGLEWMGWINTKTGEATYVEEFKGRFVFSLDTSVSTAYLQISSLKAEDTAVYYCARWDFYDYVEAMDYWGQGTTVTVSS
VL: B1 VL
notes: Fab format, bacterially expressed; also called CH7A + CL1A pAC18
- Kd [10]: 220 nM
- koff [10]: 0.0207 s⁻¹
- kon [10]: 95700 M⁻¹ s⁻¹
- Kd [11]: 216 nM
- Kd [12]: 220 nM

Now from value to binder:

- kon [1]: 53100 M⁻¹ s⁻¹
- EC50 (read off the curve) [2]: ~1 µg/mL
- Kd [3]: 9.28 nM
B2: anti-CEA antibody with heavy chain CH1A1D and light chain 2F1 (antibody, V domains shown)
VH: B1 VH with A16E, S17T, V20I, F70M, L72T
VL: B1 VL

- Kd [4]: 0.507 nM
- kon [5]: 711000 M⁻¹ s⁻¹
B3: CH1A1B (Y98A/D99Y) 2F1 (antibody, V domains shown)
VH: B1 VH with Q3K, V5Q, F70M, L72T, Y102A, D103Y
VL: B1 VL

- kon [1]: 44900 M⁻¹ s⁻¹
- EC50 (read off the curve) [2]: ~1 µg/mL
- Kd [3]: 13 nM
B4: anti-CEA antibody with heavy chain CH1A1C and light chain 2F1 (antibody, V domains shown)
VH: B1 VH with A9P, V11L, F70M, L72T
VL: B1 VL

- EC50 (read off the curve) [6]: ~0.5 µg/mL
B9: antibody with affinity matured heavy chain variable region CH7A rF9 and affinity matured light chain variable region CL1A rH11 (antibody, V domains shown)
VH: B11 VH with F32Y, T55S
VL: DIQMTQSPSSLSASVGDRVTITCKASQTVSANVAWYQQKPGKAPKLLIYLASYRYRGVPSRFSGSGSGTDFTLTISSLQPEDFATYYCHQYYTYPLFTFGQGTKLEIK
notes: The suffix G2(1) is not explained; also called CH7ArF9 CL1A rH11; CH7Arf9, CL1A rH11G2(1)

- Kd [7]: 0.952 nM
- koff [7]: 0.00041 s⁻¹
- kon [7]: 423000 M⁻¹ s⁻¹
- kon [1]: 122000 M⁻¹ s⁻¹
- kon [8]: 132000 M⁻¹ s⁻¹
- Kd [4]: 1.97 nM
- kon [5]: 369000 M⁻¹ s⁻¹
- Kd [9]: 1.07 nM
- Kd [3]: 1.84 nM
B10: humanized PR1A3 antibody with heavy chain variable region CH7A and light chain variable region 2F1 (antibody, V domains shown)
VH: B11 VH
VL: B1 VL
notes: Measured in the bivalent form; also called CH7Ax2F1; parental antibody CH7A

- EC50 (read off the curve) [6]: ~0.7 µg/mL
B12: antibody with affinity matured heavy chain variable region CH7A rF9 and parent light chain variable region CL1A (antibody, human IgG1, V domains shown)
VH: B11 VH with F32Y, T55S
VL: B9 VL with T28N, S30G, A31T, L50S, R56S
notes: also called CH7A rF9, CL1A

- Kd [10]: 96 nM
- koff [10]: 0.0035 s⁻¹
- kon [10]: 36400 M⁻¹ s⁻¹
- Kd [11]: 96 nM
B13: anti-CEA Fab with affinity matured heavy chain CH7A H4E9 and affinity matured light chain CL1A pAC18 (Fab, V domains shown)
VH: B11 VH with V61I
VL: B1 VL
notes: Fab format, bacterially expressed; also called CH7A H4E9 and CL1A pAC18

- kon [8]: 236000 M⁻¹ s⁻¹
- Kd [4]: 0.465 nM
- kon [5]: 481000 M⁻¹ s⁻¹
- Kd [9]: 0.186 nM
B14: antibody with heavy chain CH7A (Y98A/D99Y) and light chain 2F1 (antibody, V domains shown)
VH: B11 VH with Y102A, D103Y
VL: B1 VL
notes: Bivalent form; also called double mutant (Y98A/D99Y)
